Experimental data as given in patent publication US20200181262A1 (published 2020).
Substitutions are numbered along the chain they refer to. “And” between values parts separate entries of the source, which are not always exact repeats. Identical values can stand only once. Blank lines part the entries; values can stand above or below the binder they belong to.

Columns and labels:
[1] = molecular target: T1, monomeric His-tagged human FcRn (hFcRn) (JTA) (human, UniProt P55899 24-290; P61769 21-119, limits assumed); test: SPR (Biacore 3000), mAb amine-coupled, His-tagged hFcRn injected, 1:1 Langmuir, pH 7.4
T1 construct: In-house soluble His-tagged FcRn; also called monomeric human FcRn produced in-house; not shown: His tag

[2] = molecular target: T2, FcRn (analyte of the BIACORE studies of Tables 9-11, tables titled anti-human FcRn mAbs) (human, UniProt P55899 24-290; P61769 21-119); test: SPR, antibody captured on protein A, FcRn 50-0.02 nM, 1:1 model
T2 construct: also called analyte (FcRn)
Method: For kinetic analysis, a 2-fold dilution range was selected from 50-0.02 nM FcRn. The association phase of FcRn analyte was monitored for 450 seconds, and dissociation was measured for 1500 seconds, at 40 μl/min. Fc1 was a reference channel and was subtracted from other flow cells to correct for non-specific binding. Kinetic values are based on a 1:1 binding model (Table 11).

[3] = molecular target: T1, monomeric His-tagged human FcRn (hFcRn) …; test: SPR (Biacore 3000), mAb amine-coupled, His-tagged hFcRn injected, 1:1 Langmuir, pH 6.0
Method: The coupling was performed by injecting 3 μg/ml of each protein into 10 mM sodium acetate, pH 4.5 (GE Healthcare), using the amine coupling kit (GE Healthcare). […] All SPR experiments were conducted at 25° C. with a flow rate of 40 μl/min. Binding data were zero-adjusted, and the reference cell value subtracted. The Langmuir 1:1 ligand binding model provided by the BIAevaluation software (version 4.1) was used to determine the binding kinetics. The closeness of the fit is described by the statistical value χ².

[4] = molecular target: T2, FcRn (analyte of the BIACORE studies of …); test: SPR (BIACORE), antibody immobilized on CM5, FcRn injected, 1:1 Langmuir, pH 6.0
Method: (§1) Antibodies were diluted into 10 mM NaAc, pH 4.5, and immobilized onto BIACORE® CM5 chips to RU levels of approximately 500-1000. Analysis was performed by injection of FcRn at concentrations of 12-800 nM in 1×PBS-P at pH 7.4 or pH 6.0.

[5] = molecular target: T2, FcRn (analyte of the BIACORE studies of …); test: SPR (BIACORE), antibody captured on protein A CM5 chip, FcRn analyte
From the text: Antibodies were captured on a CM5 chip coated with protein A and analyte (FcRn) flowed over the surface.

[6] = molecular target: T1, monomeric His-tagged human FcRn (hFcRn) …; test: SPR (Biacore 3000), H3Vk2 amine-coupled, hFcRn (JTA) injected, 1:1 Langmuir, pH 7.4
Method: (§2) All SPR experiments were conducted at 25° C. with a flow rate of 40 μl/min. Binding data were zero-adjusted, and the reference cell value subtracted. The Langmuir 1:1 ligand binding model provided by the BIAevaluation software (version 4.1) was used to determine the binding kinetics. The closeness of the fit is described by the statistical value χ2.

[7] = molecular target: T3, cynomolgus FcRn (cFcRn) obtained from SINO Biological Inc (cynomolgus monkey, UniProt Q8SPV9 24-297; Q8SPW0 21-119); test: SPR (Biacore 3000), H3Vk2 amine-coupled, cynomolgus FcRn (SINO) injected, 1:1 Langmuir, pH 7.4
T3 construct: also called pFcRn (SINO); pFeltn (SINO)
T3 sequence (Q8SPV9 24-297 limits assumed, chain 1 of 2): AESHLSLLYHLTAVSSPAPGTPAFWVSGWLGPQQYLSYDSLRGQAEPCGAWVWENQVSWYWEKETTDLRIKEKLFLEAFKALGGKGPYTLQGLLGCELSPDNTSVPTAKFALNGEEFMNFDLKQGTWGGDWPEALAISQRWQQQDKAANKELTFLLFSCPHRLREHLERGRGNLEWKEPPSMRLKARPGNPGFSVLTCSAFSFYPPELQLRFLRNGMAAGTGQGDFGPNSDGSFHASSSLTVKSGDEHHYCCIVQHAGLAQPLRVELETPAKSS
T3 sequence (Q8SPW0 21-119 limits assumed, chain 2 of 2): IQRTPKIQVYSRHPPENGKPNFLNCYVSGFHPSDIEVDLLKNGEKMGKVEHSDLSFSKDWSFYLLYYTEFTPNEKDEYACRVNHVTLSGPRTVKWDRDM
Method: as §2

[8] = molecular target: T1, monomeric His-tagged human FcRn (hFcRn) …; test: SPR (Biacore 3000), mAb amine-coupled, His-tagged hFcRn (JTA) injected, 1:1 Langmuir, pH 6.0
Method: In a further study, surface plasmon resonance (SPR) was conducted using a Biacore 3000 instrument (GE Healthcare) with CM5 sensor chips coupled with antibodies (˜550 resonance units (RU)) using amine-coupling chemistry as described by the manufacturer. […] All SPR experiments were conducted at 25° C. with a flow rate of 40 μl/min. Binding data were zero-adjusted, and the reference cell value subtracted. The Langmuir 1:1 ligand binding model provided by the BIAevaluation software (version 4.1) was used to determine the binding kinetics. The closeness of the fit is described by the statistical value χ2.

[9] = molecular target: human FcRn as expressed in cells (human whole blood; hFcRn transgenic mice) (human, UniProt P55899 24-365; P61769 21-119); test: cell-based or functional assay
[10] = molecular target: T2, FcRn (analyte of the BIACORE studies of …); test: SPR (BIACORE), antibody immobilized on CM5, FcRn injected, 1:1 Langmuir, pH 7.4
Method: as §1

[11] = molecular target: T4, recombinant human FcRn (Sino Biological Inc. Cat. No. CT009-H08H) (human, UniProt P55899 24-290; P61769 21-119); test: scFv competition ELISA vs biotinylated parent murine antibody, captured FcRn, pH 7.4
T4 construct: Bought protein; also called hFcRn (SINO); immobilized FcRn
Method: (§3) A total of about 60 scFv antibodies from the VH CDR3 and VL CDR3 libraries were selected for further study. The scFv antibodies were prepared from bacterial periplasmic extracts, and tested by competition ELISA at pH 6.0 and pH 7.4. […] As in the ELISA used to test humanized variants, a 96 well flat bottom microtitre plate was pre-coated with 1 μg/ml of an FcRn antibody specific for an albumin-binding epitope distinct from the Fc-binding region. Binding was determined at pH 7.4 and pH 6.0.

[12] = molecular target: T4, recombinant human FcRn (Sino Biological …); test: scFv competition ELISA vs biotinylated parent murine antibody, captured FcRn, pH 6
Method: as §3

B1: G9VH1_Vκ2 antibody (antibody, V domains shown)
VH: QVQLVQSGAELKKPGASVKLSCKASGYTFTSYGISWVKQATGQGLEWIGEIYPRSGNTYYNEKFKGRATLTADKSTSTAYMELRSLRSEDSAVYFCARSTTVSPPRVWGTGTTVTVSS
VL: DIQMTQSPSSLSASVGDRVTITCKASDHINNWLAWYQQKPGQAPRLLISGATSLETGVPSRFSGSGTGKDYTLTISSLQPEDFATYYCQQYWSTPYTFGGGTKVEIK
notes: also called G9Vκ2
Kd [1]: 4.9 nM
kon [1]: 61000 M⁻¹ s⁻¹
Kd [2]: 0.39 nM and 0.4 nM
kon [2]: 318000 M⁻¹ s⁻¹
Kd [3]: 7.4 nM
kon [3]: 85000 M⁻¹ s⁻¹

B2: H1VH1_Vκ2 antibody (antibody, IgG4, V domains shown)
VH: B1 VH with R106P, V107L
VL: B1 VL
Kd [2]: 0.32 nM
koff [2]: 9.28e-05 s⁻¹
kon [2]: 289000 M⁻¹ s⁻¹

B4: H3VH1_Vκ2 antibody (anti-FcRn mAb H3Vκ2) (antibody, V domains shown)
VH: B1 VH with S103R, R106G, V107I
VL: B1 VL
notes: also called H3Vk2; H3VK2
Kd [6]: 4.6 nM
Kd [1]: 5.1 nM
Kd [7]: 11.9 nM
Kd [3]: 3.8 nM
Kd [8]: 3.8 nM
plasma concentration of HuLys11 (human IgG1) in hFcRn transgenic mice after 20 mg/kg [9]: 3 fold

B7: H1 VH1 scFv with humanized parental Vκ1 (scFv)
scFv: QVQLVQSGAELKKPGASVKLSCKASGYTFTSYGISWVKQATGQGLEWIGEIYPRSGNTYYNEKFKGRATLTADKSTSTAYMELRSLRSEDSAVYFCARSTTVSPPPLWGTGTTVTVSSGGGGSGGGGSGGGGSDIQMTQSPSYLSASVGDRVTITCKASDHINNWLAWYQQKPGQAPRLLISGATSLETGVPSRFSGSGTGKDYTLTISSLQTEDFATYYCQQYWSTPYTFGGGTKVEIK
notes: from bacterial periplasmic extracts
fold decrease in IC50 (relative to humanized parent scFV) [11]: 36.4 fold
fold decrease in IC50 (relative to humanized parent scFV) [12]: 17.1 fold

B10: H4 VH1 scFv with humanized parental Vκ1 (scFv)
scFv: B7 scFv with P104A, P106G, L107V
fold decrease in IC50 (relative to humanized parent scFV) [11]: 9.29 fold
fold decrease in IC50 (relative to humanized parent scFV) [12]: 6.5 fold

B11: A4 VH1 scFv with humanized parental Vκ1 (scFv)
scFv: B7 scFv with P105A, P106D, L107F, W108R
fold decrease in IC50 (relative to humanized parent scFV) [11]: 7.18 fold
fold decrease in IC50 (relative to humanized parent scFV) [12]: 5.04 fold

B13: E4 VH1 scFv with humanized parental Vκ1 (scFv)
scFv: B7 scFv with S103H, P105D, P106H, L107N
fold decrease in IC50 (relative to humanized parent scFV) [11]: 16.8 fold
fold decrease in IC50 (relative to humanized parent scFV) [12]: 3.65 fold

B14: C4 VH1 scFv with humanized parental Vκ1 (scFv)
scFv: B7 scFv with S103A, P106R
fold decrease in IC50 (relative to humanized parent scFV) [11]: 24.4 fold
fold decrease in IC50 (relative to humanized parent scFV) [12]: 18.6 fold

B15: H2 VH1 scFv with humanized parental Vκ1 (scFv)
scFv: B7 scFv with S103A, P106A, L107H
fold decrease in IC50 (relative to humanized parent scFV) [11]: 23.8 fold
fold decrease in IC50 (relative to humanized parent scFV) [12]: 14.2 fold

B17: G4 VH1 scFv with humanized parental Vκ1 (scFv)
scFv: B7 scFv with P106H
fold decrease in IC50 (relative to humanized parent scFV) [11]: 29 fold
fold decrease in IC50 (relative to humanized parent scFV) [12]: 18.9 fold

Further lines, results first:

Kd [4]: 0.6 nM
Kd [5]: 0.84 nM
B3: VH1_G9/Vκ2_E8 IgG4 (antibody, V domains shown)
VH: B1 VH
VL: B1 VL with P80T, Q89H, W92Y
notes: bivalent IgG4, kappa; also called G9VH1_E8Vκ2; G9VH1E8Vκ2

Kd [4]: 1.3 nM
koff [4]: 0.000298 s⁻¹
kon [4]: 229000 M⁻¹ s⁻¹
Kd [10]: 13.1 nM
koff [10]: 0.000544 s⁻¹
kon [10]: 54300 M⁻¹ s⁻¹
B5: VH1_G4/Vκ2_E8 IgG4 (antibody, V domains shown)
VH: B1 VH with R106H, V107L
VL: B1 VL with P80T, Q89H, W92Y
notes: bivalent IgG4, kappa; also called G4VH1E8Vκ2

Kd [4]: 1.4 nM
koff [4]: 0.000438 s⁻¹
kon [4]: 319000 M⁻¹ s⁻¹
Kd [10]: 18.2 nM
koff [10]: 0.000679 s⁻¹
kon [10]: 43800 M⁻¹ s⁻¹
B6: VH1_A8/Vκ2_E8 IgG4 (antibody, V domains shown)
VH: B1 VH with R87K, R106A, V107H
VL: B1 VL with P80T, Q89H, W92Y
notes: bivalent IgG4, kappa; also called A8VH1E8Vκ2; A8/E8VK2

fold decrease in IC50 (relative to humanized parent scFV) [11]: 20 fold
fold decrease in IC50 (relative to humanized parent scFV) [12]: 17 fold
B8: A7 VH1 scFv with humanized parental Vκ1 (scFv)
scFv: B7 scFv with L107I

fold decrease in IC50 (relative to humanized parent scFV) [11]: 25.3 fold
fold decrease in IC50 (relative to humanized parent scFV) [12]: 21.7 fold
B9: G9 VH1 scFv with humanized parental Vκ1 (scFv)
scFv: B7 scFv with P106R, L107V

fold decrease in IC50 (relative to humanized parent scFV) [11]: 26.4 fold
fold decrease in IC50 (relative to humanized parent scFV) [12]: 16.4 fold
B12: F7 VH1 scFv with humanized parental Vκ1 (scFv)
scFv: B7 scFv with S103A

fold decrease in IC50 (relative to humanized parent scFV) [11]: 30.8 fold
fold decrease in IC50 (relative to humanized parent scFV) [12]: 17.7 fold
B16: G7 VH1 scFv with humanized parental Vκ1 (scFv)
scFv: B7 scFv with S103A, P106G, L107H

fold decrease in IC50 (relative to humanized parent scFV) [11]: 37.4 fold
fold decrease in IC50 (relative to humanized parent scFV) [12]: 16.4 fold
B18: E7 VH1 scFv with humanized parental Vκ1 (scFv)
scFv: B7 scFv with L11P, P106H
